Assay results: the supplement of paper PMC12042874
± gives the uncertainty stated by the source.

Experiment: amyloid nucleation score (Sup35N fusion, yeast selection) (log enrichment); library NNK1; higher = more nucleation; inactive = no reads after selection
Outline: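 The nucleation score is a DiMSum log enrichment of output over input reads, centred on the mode score of non-aggregating sequences. Sequences under 100 input reads were excluded, and reads came from Illumina sequencing of plasmid inserts. Psi-negative yeast expressing Sup35N fused to peptides of 20 random codons were induced with 100 μM copper sulfate for 24 hours and grown 7 days at 30°C on medium lacking adenine and uracil. Random libraries had three technical output replicates.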

Row | Substance | amyloid nucleation score
1 | VSNSWAWPFRRNCGSECWFT | 0.228 ± 0.33
2 | NILGIAHTIGCLLLTFCCTL | inactive
3 | WGNFAVSWVFMEVNACRLRW | -0.323 ± 0.66
4 | VSITRVGTFIRYLFCIARCW | -0.866 ± 0.9
5 | SSGYSGSCVNINWC | 6.412 ± 0.045
6 | TYLRPWPFTVLLIWRRYSCL | 0.244 ± 0.81
7 | HHGRFRCKAVCRRKCGLVQV | inactive
8 | RIYILIDYSVYFSSIELLHF | -1.67 ± 1.1
9 | YLCPFIYMAHSGSSDVCLIV | 3.38 ± 0.11
10 | FCVTNPWS | 0.308 ± 0.58
11 | DCYREVSYFKFQNTKGSGSW | 3.33 ± 0.14
12 | SNFHRNVYRGYRV | inactive
13 | MDKSTMVGIKCTMRVSRQMG | -0.158 ± 0.56
14 | RWESKRRRRGRYGFWSVSVR | 0.129 ± 0.35
15 | GLCYNEVDAVASGESGDDRG | -0.376 ± 0.45
16 | ICNSLMEDDMGASEVMC | 0.734 ± 0.57
17 | LSVIIII | 4.96 ± 0.051
18 | GGNKPCG | 2.11 ± 0.57
19 | IIGLVWSVL | 0.993 ± 0.58
20 | VLGMCGTRYIDFF | 3.12 ± 0.085
21 | HSWGRKVF | -1.1 ± 0.47
22 | DWRMWGF | -0.865 ± 0.69

Row | Substance | amyloid nucleation score
23 | FLKLFHLRGFLYG | inactive
24 | LATGHVFYGFG | -0.116 ± 0.36
25 | NFLESSFYFFALVSASLSFN | 0.527 ± 0.25
26 | CDGVMKSGVKKMSTSRDWFM | inactive
27 | GYVDPFRLYQGLMIFDYVGS | -0.332 ± 0.44
28 | LNGTLSCNAISFFIMFA | 0.846 ± 0.44
29 | FGLRYSMCHHGRGHLKWLYT | 1.35 ± 0.65
30 | SVLCTLALSTCLGCLIVS | inactive
31 | ACLGVTRGYSGPSTTKSFLR | -0.238 ± 0.46
32 | WESSAAVDTCTILKMTEKVG | 0.579 ± 1.2
33 | VNLFLVMKFK | 6.676 ± 0.043
34 | WLSMANHLIISCGSCRFRAF | 0.973 ± 0.44
35 | KLLSTDNLYVQSYLFEDCNR | -0.544 ± 0.59
36 | LFKYYNWVGTLVTYIMIYVW | -1.62 ± 0.62
37 | YCQCVCFSAMYSKTSRLNMG | 6.744 ± 0.066
38 | IVTCESGCRLKSSRDKCPSR | 0.284 ± 0.59
39 | CNIVFSPGTDNVVEIRVRKL | 4.15 ± 0.062
40 | FMLERYFQ | -0.157 ± 0.24
41 | KLRRSIDTCNVYVWS | -0.593 ± 0.23
42 | RLCQVDEAASTESRKAKWGR | 0.075 ± 0.35
43 | LRSFW | inactive
44 | CNIMRSLWLGAIVCMSTMYC | -0.396 ± 0.73

Row | Substance | amyloid nucleation score
45 | VYFIVVVKGRSGLFMLSFGD | -0.997 ± 1.4
46 | VRLKVKCIMIH | 0.962 ± 0.72
47 | LMYKICTLVRRLHLSRYKNM | -1.27 ± 1.7
48 | SEHILFLCCMMVGSVVSSAC | inactive
49 | EMFCC | 0.554 ± 0.59
50 | RDIWMATYRWVRVYSLMWIG | 1.01 ± 0.48
51 | VRAELVTVGCLRRATYYRPK | -0.319 ± 1.2
52 | NTGRISYFFVVSNPSPYSLR | 3.75 ± 0.058
53 | LHTTKK | 0.293 ± 0.48
54 | RGQQPFVTLKRAVFKSINTD | -0.02 ± 0.41
55 | FFAIVGRKVCRGSIHFWSIT | 1.23 ± 0.61
56 | VGFGPVWTRPYNTWYNYGKS | 0.514 ± 0.66
57 | ACDRMGGVSGPDSAAVWPYI | -1.91 ± 2.7
58 | SSCVIRKCKHERQRWMS | inactive
59 | CRSHRGHMCSLVSYLAHGSS | inactive
60 | CTDSEAKGCDFFGRISVNVY | 0.689 ± 0.73
61 | HCLGIRMVRRYILDRRCHWV | inactive
62 | VLMQVSTLAAWDSKRDMTSC | 0.528 ± 0.35
63 | AVFGTIIESFMSGG | 0.399 ± 0.34
64 | RCINRGNLAHGGGWCKCKAR | 0.743 ± 0.54
65 | GRKIDCGRLIMIAVRCNQVA | 0.358 ± 0.41
66 | TIIPLHIRAIYA | 0.956 ± 0.28

Row | Substance | amyloid nucleation score
67 | ASRSCIVSRRASGPHVCCQV | 0.098 ± 0.91
68 | KRSSFYHWQWHGKSL | -0.718 ± 0.51
69 | SDDRLATCTFCLYSRIKQVK | -0.651 ± 1.7
70 | ADRKSFLQSCGLCE | -0.661 ± 0.32
71 | CASRFMCGPTINKWVR | -1.02 ± 1.1
72 | KYLACILCSKLLTQSNSRNI | 7.687 ± 0.058
73 | RGDGTRNRRCAIFSN | -0.064 ± 0.99
74 | SLRVTLTGQTDLASEFQWWL | inactive
75 | RLSNLVRPLDRLIGVVEVGM | 0.469 ± 0.42
76 | RWRLFLRAMSLYDDVSHASA | 0.287 ± 0.23
77 | EGMNLV | 0.196 ± 0.63
78 | VHIPHDCISAIVFRSSAAIS | -0.331 ± 0.49
79 | FQYGLGMRVRWKDAMLIRTR | inactive
80 | QLTGW | -0.036 ± 0.22
81 | NYNTIWMMKWFNGRWFLSAV | -0.293 ± 0.94
82 | LWKLLAAGVGNMCDD | -0.503 ± 0.38
83 | KFVYSVGMTLSSGSFSVEIF | 5.02 ± 0.053
84 | QLESMIYCVVSFYAAGVNFE | -0.468 ± 1.9
85 | WVINFVGKTCDTIDP | inactive
